Article PMC10377036, “Biological Recognition-Based Electrochemical Aptasensor for Point-of-Care Detection of cTnI”

Molecular target: cardiac troponin I (cTnI) (UniProt P19429 2-210)
Experiment: electrochemical aptasensor (CV, SWV); 50 ng/mL cTnI in CV feasibility test; electrode blocked with MCH; sensor LOD 8.46 pg/mL, linear range 10 pg/mL-100 ng/mL (not a Kd); SWV in PBS (0.01 M PB, 150 mM NaCl, pH 7.4); 10 uL cTnI incubated on electrode 10 min at room temperature
Settings: protein: commercial; label: methylene blue; single strand

Chain of cardiac troponin I (cTnI) (P19429 2-210): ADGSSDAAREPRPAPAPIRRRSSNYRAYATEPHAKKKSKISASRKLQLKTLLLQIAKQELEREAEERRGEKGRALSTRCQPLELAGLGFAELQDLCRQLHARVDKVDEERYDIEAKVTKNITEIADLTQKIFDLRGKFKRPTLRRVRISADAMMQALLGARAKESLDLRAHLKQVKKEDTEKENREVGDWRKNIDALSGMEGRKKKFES

CGTGCAGTACGCCAACCTTTCTCATGCGCTGCCCCTCTTA (ssDNA, 5' thiol (SH); 3' methylene blue (MB)) [Apt (MB-Apt-SH)]: binds.
